Results from article PMC9330781.

Target: Recombinant blood coagulation factor VIII (human)
Details: scale: times higher molar excess over FVIII

- FVIII activity in the chromogenic substrate (CS) assay; thrombin-cleaved scFv 1000 to 0.24 nM with 145 pM FVIII; molar excess needed for the same inhibition as the non-cleaved scFv: 100
B1: Thrombin-cleaved iKM33-v2 (mixture of dissociated VH and VL) (protein)
VH: EVQLVESGGGVVQPGRSLRLSCVDSGLTFSSYGMHWVRQAPGAGLEWVAVISYDGNDKYYADSVKGRFAISRDNAKNTLYLQMNSLTIEDTAVYYCAKDLIESNIAEAFWGQGTLVTVSS
VL: DIQMTQSPSSLSASVGDTVTIACRASRDIRNDLAWYQQKPGKAPKLLIYATSRLQSGVPSRFSGSGSFTDFTLTINSLQPDDSATYYCLQDSDYPLTFGGGTKVDIK
